From the supplement of paper PMC11811203

B1: THAP1; numbered along this chain (parent)
chain: MVQSCSAYGCKNRYDKDKPVSFHKFPLTRPSLCKEWEAAVRRKNFKPTKYSSICSEHFTPDCFKRECNNKLLKENAVPTIFLCTEPHDKKEDLLEPQEQLPPPPLPPPVSQVDAAIGLLMPPLQTPVNLSVFCDHNYTVEDTMHQRKRIHQLEQQVEKLRKKLKTAQQRCRRQERQLEKLKEVVHFQKEKDDVSERGYVILPNDYFEIVEVPA

Variants of: B1
Assay: THAP1 transcriptional activity (GFP+/GFP- enrichment relative to wild-type constructs) (ratio to WT); higher = more THAP1 activity (PSMB5 reporter activation)
Conditions: with PSMB5 promoter-GFP reporter
Outline: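 Activity values are replicate-mean bright/dim read fold changes divided by the mean of wild-type synonymous constructs. They come from a human THAP1 site-saturation library (residues 2–213, each changed to all 20 amino acids) delivered by lentivirus at MOI ~0.3, in duplicate, into THAP1-knockout HEK-293T cells with mClover3 at endogenous PSMB5. BFP+ cells were sorted into GFP-dim and GFP-bright bins after five days, and variants were counted by Illumina sequencing of genomic DNA amplicons.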

THAP1 transcriptional activity of substitutions, site by site:
V139: C 0.724; W 0.454; M 1.22; T 0.34; I 0.897; F 0.996; R 0.938; Q 0.576; K 1.41; L 1.18; P 0.163; G 0.378; D 0.0939; H 0.721; E 0.369; A 0.763; S 0.407; Y 0.59
M143: W 0.719; H 0.575; R 0.991; Y 0.547; K 0.848; T 1.19; Q 0.669; A 0.634; C 1.09; G 1.05; L 0.725; D 1.76; S 0.971; I 0.679; V 1.09; F 0.339; N 0.961; P 1.2; E 0.983
Y137: W 0.0825
R146: M 0.595; N 0.584; P 0.535; Q 0.849; W 0.39; F 0.489; A 0.79; Y 0.539; D 0.548; I 0.358; S 1
E153: N 0.512; G 0.412; Q 0.585; M 0.461; V 0.395; W 0.268; C 0.315; I 0.393; S 0.631; K 0.513; T 0.774; R 0.491; Y 0.404
T138: L 0.13; N 0.196; C 2.63; M 0.238; I 0.274; D 0.306; G 0.526; H 0.837; Q 0.224; K 0.191; F 0.626; Y 0.424; R 0.375; P 0.286; W 0.363; A 2.41; E 0.215; S 1.07; V 0.728
D141: Y 0.644; P 0.986; L 0.286; N 0.776; R 0.588; Q 0.581; G 0.809; M 0.395; T 0.642; F 0.552; W 0.255; K 0.927; S 0.634; V 0.352; C 0.355; A 0.37; E 1.51; H 0.514; I 0.309
K158: L 0.386; G 0.542; P 0.175; E 0.562; R 0.941; H 0.822; V 0.617; D 0.831; I 0.55; M 0.607; Q 0.708; F 0.365; N 0.391; W 0.457
Q151: R 1.12; P 0.303; V 0.675; T 0.796; M 0.894; I 0.817; C 0.782; A 0.791; N 0.636; L 0.804; S 0.793; E 0.7; G 0.864
H150: L 0.769; I 0.713; Q 1.21; P 0.317; M 1.09; G 0.721; C 0.635; E 0.884; V 1.1; W 0.976; Y 0.767; A 1; N 0.896; R 1.19; D 0.609
E157: S 1.39; N 0.914; A 1.14; R 0.765; Q 0.766; L 0.434; P 0.228; G 0.865; Y 0.488; C 0.685; W 0.741; I 1.2; M 1.03; V 0.835; D 0.766
E140: C 0.908; P 3.02; R 1.3; N 1.33; D 0.727; I 1.08; G 2.94; A 1.46; S 1.48; W 1.1; V 1.01; Y 1.16; M 1.04; H 0.784; Q 1.61; K 4.18; F 1.16; T 1.57; L 1.81
R148: D 0.202; G 0.324; W 0.179; K 1.02; P 0.18; F 0.196; E 0.167; A 0.487; C 0.26; L 0.312; Q 0.425; T 0.312; N 0.303; V 0.412; M 0.261
K147: N 0.976; D 0.605; V 0.383; H 0.438; S 0.621; R 0.9; G 0.51; M 0.271; Y 0.522; E 0.626; I 0.346; P 0.502; T 0.664; L 0.458; A 0.537; W 0.458; F 0.361
T142: V 0.403; K 0.964; Q 0.756; W 0.266; P 0.997; N 0.392; C 0.803; S 0.66; H 0.658; F 0.386; Y 0.248; I 0.34; R 0.576; D 0.738; G 0.864; A 0.581; L 0.587; E 1.23; M 0.188
L152: W 0.246; M 0.249; N 0.287; C 0.209; K 0.189; Q 0.191; V 0.213; R 0.306; D 0.195; F 0.236; P 0.177; A 0.28; H 0.215; S 0.211; G 0.249; E 0.227; I 0.29
Q145: T 1.05; W 0.755; M 0.767; R 0.646; N 0.719; L 0.544; K 0.783; Y 0.618; A 1.08; P 0.652; C 0.357; S 0.592; I 0.448; V 0.59; D 0.415; F 0.716; H 0.747; G 0.569; E 0.577
H144: T 0.4; K 0.954; S 0.747; M 0.509; P 0.334; Y 0.802; Q 0.814; C 0.498; W 0.56; A 1.5; F 0.637; R 0.709; G 1.11; D 0.747; E 0.421; N 0.686; V 0.388
Q155: D 0.521; P 0.175; I 0.473; W 0.376; Y 0.71; M 0.674; T 0.609; V 0.773; C 0.531; H 0.765; N 0.447; R 0.65; S 0.563; K 0.749
I149: K 0.403; W 0.164; E 0.225; Y 0.445; D 0.218; Q 0.327; F 0.539; N 0.465; H 0.248; G 0.197; C 0.454; R 0.245
V156: Y 0.362; A 0.555; H 0.201; I 0.548; G 0.25; P 0.0732; R 0.349; K 0.343; M 0.475; L 0.731; W 0.284; T 0.468; C 0.708; E 0.213; S 0.331; D 0.153; Q 0.225
Q154: E 0.776; L 0.867; I 0.779; G 0.732; M 1.17; A 1.06; S 1.24; W 0.539; D 0.962; R 0.653; V 0.661
